Data as given in paper PMC4686794, “Obesity-related known and candidate SNP markers can significantly change affinity of TATA-binding protein for human gene promoters”.

Legend:
Conditions in all cases: protein: recombinant; label: 32P on both strands; blunt
[1] = target: T1, TATA-binding protein (TBP) (Homo sapiens, UniProt P20226 1-339); experiment: EMSA (kinetic, kd/ka); 5 mM Mg2+; ka 3.5e3 M-1s-1, kd 1.5e-4 s-1; 20 mM HEPES-KOH pH 7.6, 5 mM MgCl2, 70 mM KCl, 1 mM DTT, 100 ug/mL BSA, 0.01% NP-40, 5% glycerol, 25 C; 0.3 nM active TBP, ODN 10-60 nM
T1 sequence (P20226 whole entry): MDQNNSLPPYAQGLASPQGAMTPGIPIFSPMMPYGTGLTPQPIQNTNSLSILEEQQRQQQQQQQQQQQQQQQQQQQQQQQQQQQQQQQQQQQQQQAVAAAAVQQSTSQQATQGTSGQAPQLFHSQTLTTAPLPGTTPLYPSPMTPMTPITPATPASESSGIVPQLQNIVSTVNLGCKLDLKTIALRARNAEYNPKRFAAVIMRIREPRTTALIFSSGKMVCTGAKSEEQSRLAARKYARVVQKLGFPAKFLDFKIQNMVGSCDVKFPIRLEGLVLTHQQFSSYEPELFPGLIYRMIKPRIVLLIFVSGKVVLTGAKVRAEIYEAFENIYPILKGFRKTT

[2] = target: T1, TATA-binding protein (TBP); experiment: EMSA (kinetic, kd/ka); 5 mM Mg2+; ka 70e3 M-1s-1, kd 5e-4 s-1; 20 mM HEPES-KOH pH 7.6, 5 mM MgCl2, 70 mM KCl, 1 mM DTT, 100 ug/mL BSA, 0.01% NP-40, 5% glycerol, 25 C; 0.3 nM active TBP, ODN 10-60 nM
[3] = target: T1, TATA-binding protein (TBP); experiment: EMSA (kinetic, kd/ka); 5 mM Mg2+; ka 5.6e3 M-1s-1, kd 13.0e-4 s-1; 20 mM HEPES-KOH pH 7.6, 5 mM MgCl2, 70 mM KCl, 1 mM DTT, 100 ug/mL BSA, 0.01% NP-40, 5% glycerol, 25 C; 0.3 nM active TBP, ODN 10-60 nM
[4] = target: T1, TATA-binding protein (TBP); experiment: EMSA (kinetic, kd/ka); 5 mM Mg2+; ka 2.3e3 M-1s-1, kd 1.8e-4 s-1; 20 mM HEPES-KOH pH 7.6, 5 mM MgCl2, 70 mM KCl, 1 mM DTT, 100 ug/mL BSA, 0.01% NP-40, 5% glycerol, 25 C; 0.3 nM active TBP, ODN 10-60 nM
[5] = target: T1, TATA-binding protein (TBP); experiment: EMSA (kinetic, kd/ka); 5 mM Mg2+; ka 30e3 M-1s-1, kd 6e-4 s-1; 20 mM HEPES-KOH pH 7.6, 5 mM MgCl2, 70 mM KCl, 1 mM DTT, 100 ug/mL BSA, 0.01% NP-40, 5% glycerol, 25 C; 0.3 nM active TBP, ODN 10-60 nM

B1: LEP -38a (rs200487063 minor) (dsDNA)
DNA 1: ATCGGGCCACTATAAGAGGGGCGGGC
DNA 2: GCCCGCCCCTCTTATAGTGGCCCGAT
**Q.** How did the Kd [1] turn out when B1 was run?
**A.** 43 nM

B2: GCG WT (dsDNA)
DNA 1: AGCTGGAGAGTATATAAAAGCAGTGC
DNA 2: GCACTGCTTTTATATACTCTCCAGCT
**Q.** B2 was tested. Which Kd [2] did it give?
**A.** 8 nM

B3: LEP -35g (rs201381696 minor) (dsDNA)
DNA 1: ATCGGGCCGCTGTAAGAGGGGCGGGC
DNA 2: GCCCGCCCCTCTTACAGCGGCCCGAT
**Q.** For B3, which Kd [3] is on record?
**A.** 232 nM

B4: LEP WT (dsDNA)
DNA 1: ATCGGGCCGCTATAAGAGGGGCGGGC
DNA 2: GCCCGCCCCTCTTATAGCGGCCCGAT
**Q.** With B4 as the binder, how does the Kd [4] read?
**A.** 78 nM

B5: GCG -41g (rs183433761 minor) (dsDNA)
DNA 1: AGCTGGAGAGTGTATAAAAGCAGTGC
DNA 2: GCACTGCTTTTATACACTCTCCAGCT
**Q.** For B5, which Kd [5] is on record?
**A.** 18 nM
